Assay results: patent US20210395392A1 (Bristol-Myers Squibb, published 2021)
Changes are numbered by the printed parent chain.

T1: Mouse MerTK on mMerTK-expressing cells (mouse, UniProt Q60805 19-994)
T1 sequence: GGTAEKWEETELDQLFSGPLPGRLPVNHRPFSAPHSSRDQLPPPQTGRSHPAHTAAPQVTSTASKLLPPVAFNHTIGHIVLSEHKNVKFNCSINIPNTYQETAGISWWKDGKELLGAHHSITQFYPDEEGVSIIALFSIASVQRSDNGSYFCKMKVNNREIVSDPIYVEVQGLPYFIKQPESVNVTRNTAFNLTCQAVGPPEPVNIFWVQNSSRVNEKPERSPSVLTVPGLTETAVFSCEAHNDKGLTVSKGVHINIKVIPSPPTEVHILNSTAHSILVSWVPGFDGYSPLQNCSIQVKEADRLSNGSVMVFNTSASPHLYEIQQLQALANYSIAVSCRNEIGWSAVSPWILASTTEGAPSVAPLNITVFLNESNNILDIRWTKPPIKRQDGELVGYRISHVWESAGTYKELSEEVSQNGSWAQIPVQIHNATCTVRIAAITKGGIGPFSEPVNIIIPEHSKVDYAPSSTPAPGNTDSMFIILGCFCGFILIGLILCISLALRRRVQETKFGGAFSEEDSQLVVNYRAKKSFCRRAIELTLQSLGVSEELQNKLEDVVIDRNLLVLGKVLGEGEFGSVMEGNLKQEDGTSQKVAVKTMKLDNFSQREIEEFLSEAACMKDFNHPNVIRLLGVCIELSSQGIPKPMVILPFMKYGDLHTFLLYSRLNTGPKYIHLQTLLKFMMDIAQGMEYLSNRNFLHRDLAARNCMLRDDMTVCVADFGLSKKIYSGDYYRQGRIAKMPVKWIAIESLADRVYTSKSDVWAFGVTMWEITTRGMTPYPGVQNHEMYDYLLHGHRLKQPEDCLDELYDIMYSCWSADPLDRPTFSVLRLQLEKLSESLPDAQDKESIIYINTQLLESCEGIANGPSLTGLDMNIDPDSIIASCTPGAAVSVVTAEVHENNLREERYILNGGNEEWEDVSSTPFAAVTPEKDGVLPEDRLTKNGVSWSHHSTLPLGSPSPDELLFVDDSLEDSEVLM

B1: HuMAb 1B4 (antibody, human IgG1, kappa, V domains shown)
VH: QLQLQESGPGLVKPSETLSLTCAVSGYSISSGNYWGWIRQSPGKGLEWIGSVDHSGSTYYSPSLKSRVTISVDTSKNQFSLKLNSVTAADTADYYCARNTMIRGVMDWFDPWGQGTLVTVSS
VL: AIQLTQSPSSLSASVGDRVTITCRASQGISSALAWYQQKPGKAPKVLIYDASSLESGVPSRFSGSGSGTDFTLTISSLQPEDFATYYCQQFRSYPTFGQGTKVEIKR
notes: Human anti-hMerTK mAb, Bin 1
B2: HuMAb 4K10 (antibody, human IgG1, kappa, V domains shown)
VH: QVQLQQWGAGLLKPSETLSLTCAVYGGSFSGYYWSWLRQPPGKGLEWIGEISHSGSTNYNPSLKSRVTISVDTSKNQFSLKLSSVTAADTAVYYCARALSRYWYFDLWGRGTLVTVSS
VL: EIVLTQSPATLSLSPGERATLSCRASQSASNYLAWYQQKPGQAPRLLIYDASNRATGIPARFSGSGSGTDFTLTISSLEPEDFAVYYCYQRSQWPISFGQGTRLEIKR
notes: Human anti-hMerTK mAb, Bin 3
B3: HuMAb 22I16 (antibody, human IgG1, kappa, V domains shown)
VH: EVQLVESGGGLVQPGGSLRLSCAASGFTFSSYSMNWVRQAPGKGLEWVSYIISGSDTIFYADSVKGRFTISRDNAKNSLYLQMNSLRDEDTAVYYCARDETVVRGVINYFDYWGQGTLVTVSS
VL: B1 VL with A25S, V46L, R92I, K102R, V103L
notes: Human anti-hMerTK mAb, Bin 1; also called 22116
B4: HuMAb 25J60 (antibody, human IgG1, kappa, V domains shown)
VH: QVQLVQSGAEVKKPGASVKVSCKTSGNTQIRYYMYWVRQAPGQGLEWMGILNPNQDQTTYAQKFQGRVTMTRDTSTSTVYMELSSLRSEDTAVYYCATTYRYYMDVWGQGTTVTVSS
VL: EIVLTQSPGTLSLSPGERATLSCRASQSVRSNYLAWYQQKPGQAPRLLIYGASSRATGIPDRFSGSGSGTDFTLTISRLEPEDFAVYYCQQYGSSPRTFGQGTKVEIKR
notes: Human anti-hMerTK mAb, Bin 2, derived from HuMAb 25B10 by optimization
B5: HuMAb 25J80 (antibody, human IgG1, kappa, V domains shown)
VH: B4 VH with N27R, Q29F, Y35H, L51I, N52W, Q55G, R101K, Y103A
VL: EIVLTQSPGTLSLSPGERATLSCRASQSVRSNYLAWYQQKPGQAPRLLIYGASSRATGIPDRFSGSGSGTDFTLTISRLEPEDFAVYYCQQYESPPRTFGQGTKVEIKR
notes: as for B4
B6: HuMAb 8N42 (antibody, V domains shown)
VH: QVQLQQWGAGLLKPSETLSLTCAVYGGSFSIYYWSWIRQPPGKGLELIGEINDEGNTNYNPSLKSRVTISVDTSKNQFSLKLSSVTAADTAVYYCARGGTGDIHAFDIWGQGTMVTVSS
VL: DIQMTQSPSSLSASVGDRVTITCRASQGISKWLAWYQQKPEKAPKSLIYAASSLQSGVPSRFSGSGSGTDFTLTISSLQPEDFATYYCQQYNSYPWTFGQGTKVEIKR
notes: Human anti-hMerTK mAb, Bin 1

target: T1, Mouse MerTK on mMerTK-expressing cells; assay: cell-based or functional assay

Row | Signaling Assay, mMerTK with Gas6, pSTAT1 IC50 (nM) | Binder
1 | > 100 nM | B1

target: T1, Mouse MerTK on mMerTK-expressing cells; assay: binding to mMerTK-expressing cells; SPR not run

Row | binding result | Binder
2 | no binding | B2
3 | no binding | B1
4 | no binding | B3
5 | no binding | B4
6 | no binding | B5
7 | no binding | B6
